From article PMC8246987

Molecular target: T1, DJ‐1 (human (endogenous in HEK‐293)), Q99497
T1 chain: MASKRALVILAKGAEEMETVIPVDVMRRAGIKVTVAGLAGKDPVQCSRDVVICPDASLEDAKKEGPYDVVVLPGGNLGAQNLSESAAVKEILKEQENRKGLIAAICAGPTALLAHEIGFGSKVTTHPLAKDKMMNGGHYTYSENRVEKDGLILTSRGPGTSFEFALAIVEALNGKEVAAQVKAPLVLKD
Assay: cross-linking
Conditions: remark: other sources report otherwise

B1: DJ‐1, Q99497 1-189 (natural protein)
chain: T1 chain
Binder B1 has a stoichiometry N of 2.
